Data as given in US20170306018A1 (Bristol-Myers Squibb, published 2017).
“And” between values parts separate entries of the source, which are not always exact repeats. Equal values may be shown once.

B1: anti-ROR1 IgG1 antibody (ROR1 Mab1) (antibody, V domains shown)
VH: QEQLVESGGRLVTPGGSLTLSCKASGFDFSAYYMSWVRQAPGKGLEWIATIYPSSGKTYYATWVNGRFTISSDNAQNTVDLQMNSLTAADRATYFCARDSYADDGALFNIWGPGTLVTISS
VL: ELVLTQSPSVSAALGSPAKITCTLSSAHKTDTIDWYQQLQGEAPRYLMQVQSDGSYTKRPGVPDRFSGSSSGADRYLIIPSVQADDEADYYCGADYIGGYVFGGGTQLTVTG
notes: Used Alexa488-labelled in some assays; also called anti-ROR1 antibody; anti-ROR1 IgG antibody
B2: ROR1 Mab2-TCBcv (bispecific antibody)
heavy 1: not shown
heavy 2: EVKLVESGGGLVKPGGSLKLSCAASGFTFSSYAMSWVRQIPEKRLEWVASISRGGTTYYPDSVKGRFTISRDNVRNILYLQMSSLRSEDTAMYYCGRYDYDGYYAMDYWGQGTSVTVSSASTKGPSVFPLAPSSKSTSGGTAALGCLVEDYFPEPVTVSWNSGALTSGVHTFPAVLQSSGLYSLSSVVTVPSSSLGTQTYICNVNHKPSNTKVDEKVEPKSCDKTHTCPPCPAPEAAGGPSVFLFPPKPKDTLMISRTPEVTCVVVDVSHEDPEVKFNWYVDGVEVHNAKTKPREEQYNSTYRVVSVLTVLHQDWLNGKEYKCKVSNKALGAPIEKTISKAKGQPREPQVCTLPPSRDELTKNQVSLSCAVKGFYPSDIAVEWESNGQPENNYKTTPPVLDSDGSFFLVSKLTVDKSRWQQGNVFSCSVMHEALHNHYTQKSLSLSPGK
light 1: DIKMTQSPSSMYASLGERVTITCKASPDINSYLSWFQQKPGKSPKTLIYRANRLVDGVPSRFSGGGSGQDYSLTINSLEYEDMGIYYCLQYDEFPYTFGGGTKLEMKRTVAAPSVFIFPPSDRKLKSGTASVVCLLNNFYPREAKVQWKVDNALQSGNSQESVTEQDSKDSTYSLSSTLTLSKADYEKHKVYACEVTHQGLSSPVTKSFNRGEC
light 2: EVQLLESGGGLVQPGGSLRLSCAASGFTFSTYAMNWVRQAPGKGLEWVSRIRSKYNNYATYYADSVKGRFTISRDDSKNTLYLQMNSLRAEDTAVYYCVRHGNFGNSYVSWFAYWGQGTLVTVSSASVAAPSVFIFPPSDEQLKSGTASVVCLLNNFYPREAKVQWKVDNALQSGNSQESVTEQDSKDSTYSLSSTLTLSKADYEKHKVYACEVTHQGLSSPVTKSFNRGEC
notes: 2+1 TCB with charge variants, bivalent for ROR1 (Mab2) and monovalent for CD3; The chain set is printed under the name Mab2 ROR1-TCB (2+1); also called Mab2 ROR1-TCBcv; Mab2 ROR1-TCB (2+1)
B3: ROR1 Mab2 IgG (antibody, V domains shown)
VH: EVKLVESGGGLVKPGGSLKLSCAASGFTFSSYAMSWVRQIPEKRLEWVASISRGGTTYYPDSVKGRFTISRDNVRNILYLQMSSLRSEDTAMYYCGRYDYDGYYAMDYWGQGTSVTVSS
VL: DIKMTQSPSSMYASLGERVTITCKASPDINSYLSWFQQKPGKSPKTLIYRANRLVDGVPSRFSGGGSGQDYSLTINSLEYEDMGIYYCLQYDEFPYTFGGGTKLEMK
notes: Tested as IgG; also called Mab 4A5

Assays:
human CD3ε = target: T1, human CD3ε (human, UniProt P07766 23-207); assay: flow cytometry on Jurkat T cells
T1 construct: whole, on cells; CD3 on human leukemic Jurkat T cells, as part of the TCR/CD3 complex; also called CD3 epsilon
T1 sequence (P07766 23-207): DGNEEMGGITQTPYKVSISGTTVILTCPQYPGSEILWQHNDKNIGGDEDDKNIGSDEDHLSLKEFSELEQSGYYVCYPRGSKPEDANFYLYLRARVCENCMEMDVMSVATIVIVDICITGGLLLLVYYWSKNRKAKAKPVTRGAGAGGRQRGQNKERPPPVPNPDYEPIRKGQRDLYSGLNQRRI
Protocol: Anti-ROR1/anti-CD3 T cell bispecific antibodies generated in Example 5 were analyzed by flow cytometry for their binding to human ovarian cancer cell lines PA-1 and SK-OV-3 and human CD3 expressed on human leukemic T cells Jurkat (ATCC TIB-152). Jurkat T cells were cultured in RPMI1640 medium supplemented with 10% fetal calf serum. Briefly, cultured cells were harvested, counted and cell viability is evaluated using ViCell. Viable cells were then adjusted to 2×10⁶ cells per ml in FACS Stain Buffer (BD Biosciences) containing 0.1% BSA. 100 μl of this cell suspension were further aliquoted per well into a round-bottom 96-well plate. […] After incubation for 30 min at 4° C., cells are centrifuged (5 min, 350×g), washed twice with 150 μl/well BSA-containing FACS Stain Buffer (BD Biosciences), then cells are fixed using 100 ul BD Fixation buffer per well (#BD Biosciences, 554655) at 4° C. for 20 min, resuspended in 120 μl FACS buffer and analyzed using BD FACS CantoII. Binding of the anti-ROR1/anti-CD3 T cell bispecific antibodies to human ovarian cancer cells and T cells were evaluated and the median fluorescence intensity was determined gated on either human ovarian cancer cells or CD3-expressing Jurkat T cells and plotted in histograms and dot plots. […] Median fluorescence intensity for anti-ROR1/anti-CD3 T cell bispecific antibodies in function of antibody concentrations were plotted.

human ROR1 [1] = target: T2, human ROR1 (human, UniProt Q01973 30-937); assay: flow cytometry on PA-1 cells
T2 construct: Endogenous ROR1 on primary B-CLL cells, RPMI8226, Rec-1, SK-OV-3 and PA-1 cells; also called tyrosine-protein kinase transmembrane receptor ROR1; neurotrophic tyrosine kinase, receptor-related 1
T2 sequence (Q01973 30-937 limits assumed): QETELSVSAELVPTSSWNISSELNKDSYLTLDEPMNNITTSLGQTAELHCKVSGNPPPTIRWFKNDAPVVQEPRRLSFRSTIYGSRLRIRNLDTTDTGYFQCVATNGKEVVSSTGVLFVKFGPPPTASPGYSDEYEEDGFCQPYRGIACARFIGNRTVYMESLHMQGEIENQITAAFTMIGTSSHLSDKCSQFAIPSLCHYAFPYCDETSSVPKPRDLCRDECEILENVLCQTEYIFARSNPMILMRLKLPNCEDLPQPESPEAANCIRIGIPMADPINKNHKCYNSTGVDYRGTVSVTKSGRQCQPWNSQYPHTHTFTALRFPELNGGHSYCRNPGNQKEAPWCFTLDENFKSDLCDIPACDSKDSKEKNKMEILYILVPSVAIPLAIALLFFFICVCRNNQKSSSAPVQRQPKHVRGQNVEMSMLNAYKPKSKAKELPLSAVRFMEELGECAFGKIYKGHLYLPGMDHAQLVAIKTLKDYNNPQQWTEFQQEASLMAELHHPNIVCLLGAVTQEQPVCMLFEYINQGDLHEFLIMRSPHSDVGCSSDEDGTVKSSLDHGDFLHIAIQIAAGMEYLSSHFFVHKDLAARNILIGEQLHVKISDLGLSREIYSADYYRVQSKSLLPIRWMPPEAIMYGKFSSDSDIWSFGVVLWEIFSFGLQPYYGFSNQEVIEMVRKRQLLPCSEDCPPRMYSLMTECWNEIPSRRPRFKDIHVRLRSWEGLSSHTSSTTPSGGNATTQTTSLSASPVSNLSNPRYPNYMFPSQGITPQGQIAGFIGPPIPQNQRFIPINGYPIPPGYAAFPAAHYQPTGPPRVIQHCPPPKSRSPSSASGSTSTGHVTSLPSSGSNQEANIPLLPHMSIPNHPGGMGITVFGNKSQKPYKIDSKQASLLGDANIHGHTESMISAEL
Protocol: (§1) a) The level of expression of ROR1 was measured on human ovarian cancer cell lines by flow cytometry including PA-1, COLO-704, ES-2, SK-OV-3, and OVCAR-5. Briefly, cells were harvested, washed, counted for viability, resuspended at 50,000 cells/well of a 96-well round bottom plate and incubated with Alexa488-labeled anti human ROR1 antibody for 30 min at 4° C. All ROR1 and isotype control antibodies were titrated and analyzed in final concentration range between 0.01-100 nM (0.0015-15 μg/mL). […] At the end of incubation time, cells were centrifuged (5 min at 350×g), washed twice with FACS buffer, resuspended in 100 ul FACS buffer and analyzed on a CantoII device running FACS Diva software. Expression of ROR1 was then quantified as the median fluorescence intensity (MFI) and graphs showing the MFI in function of ROR1 antibody concentrations were plotted. EC50 values were then measured using Prism software (GraphPad). […] The calculated EC50s for binding of ROR1 Mab1 and ROR1 Mab2 to SK-OV-3 are extrapolated values and may be over- or underestimated. […]

human ROR1 [2] = target: T2, human ROR1; assay: flow cytometry on RPMI8226 cells
Protocol: a) ROR1 expression was assessed on primary CD19⁺ CD5⁺ CLL cells by flow cytometry. Briefly, cells were harvested, washed, counted for viability, resuspended at 50 000 cells/well of a 96-well round bottom plate and incubated with Alexa488-labeled anti human ROR1 antibody at 10 μg/ml for 30 min at 4° C. (to prevent internalization). At the end of incubation time, cells were centrifuged (5 min at 350×g), washed twice with FACS buffer, resuspended in 100 ul FACS buffer and analyzed on a CantoII device running FACS Diva software.
b) ROR1 expression was then assessed on B lymphocyte myeloma RPMI8226 cell lines by flow cytometry, using the methods described above.

human ROR1 [3] = target: T2, human ROR1; assay: flow cytometry on SK-OV-3 cells (extrapolated value)
Protocol: as §1

human ROR1 [4] = target: T2, human ROR1; assay: cell-based or functional assay

Binder | binding result (human CD3ε) | EC50 (human ROR1 [1]) | EC50 (human ROR1 [2]) | EC50 (human ROR1 [3]) | Mean EC50 (ng/mL), cell lysis of COLO-704 (n = 1), LDH release (human ROR1 [4]) | Mean EC50 (ng/mL), cell lysis of OVCAR-5 (n = 1), LDH release (human ROR1 [4]) | Mean EC50 (ng/mL), cell lysis of PA-1 (n = 2), LDH release (human ROR1 [4]) | Mean EC50 (ng/mL), cell lysis of SKOV-3 (n = 5), LDH release (human ROR1 [4]) | Mean EC50 (pM), cell lysis of COLO-704 (n = 1), LDH release (human ROR1 [4]) | Mean EC50 (pM), cell lysis of OVCAR-5 (n = 1), LDH release (human ROR1 [4]) | Mean EC50 (pM), cell lysis of PA-1 (n = 2), LDH release, PBMC E:T 10:1 (human ROR1 [4]) | Mean EC50 (pM), cell lysis of SKOV-3 (n = 5), LDH release (human ROR1 [4])
B1 | no binding (tested: 3 nM to 500 nM) | 0.87 nM and 0.13 µg/mL | 0.087 nM and 0.013 µg/mL | ~4.62 nM and ~0.69 µg/mL | – | – | – | – | – | – | – | –
B2 | binds | – | – | – | 14.3 ng/mL | 10.7 ng/mL | 2.9 ng/mL | 141 ng/mL | 73.3 pM | 53.4 pM | 14.6 pM | 707 pM
B3 | – | 0.095 µg/mL and 0.64 nM | – | ~358 nM and ~53.4 µg/mL | – | – | – | – | – | – | – | –
